The source of these data is patent US20220112276A1 (Janssen / Centocor, published 2022).

In experiment [1] the target is T1, human pIgR extracellular domain (ECD) (human, UniProt P01833 19-638).
T1 construct: Bought from R&D Systems (Cat 2717-PG-050); also called hpIgR ECD
The experiment is described as follows: SPR.

Experiment [2] addresses T2, mouse pIgR extracellular domain (ECD) (mouse, UniProt O70570 19-645).
T2 construct: Bought from R&D Systems (Cat 2800-PG-050); also called mpIgR ECD
T2 sequence: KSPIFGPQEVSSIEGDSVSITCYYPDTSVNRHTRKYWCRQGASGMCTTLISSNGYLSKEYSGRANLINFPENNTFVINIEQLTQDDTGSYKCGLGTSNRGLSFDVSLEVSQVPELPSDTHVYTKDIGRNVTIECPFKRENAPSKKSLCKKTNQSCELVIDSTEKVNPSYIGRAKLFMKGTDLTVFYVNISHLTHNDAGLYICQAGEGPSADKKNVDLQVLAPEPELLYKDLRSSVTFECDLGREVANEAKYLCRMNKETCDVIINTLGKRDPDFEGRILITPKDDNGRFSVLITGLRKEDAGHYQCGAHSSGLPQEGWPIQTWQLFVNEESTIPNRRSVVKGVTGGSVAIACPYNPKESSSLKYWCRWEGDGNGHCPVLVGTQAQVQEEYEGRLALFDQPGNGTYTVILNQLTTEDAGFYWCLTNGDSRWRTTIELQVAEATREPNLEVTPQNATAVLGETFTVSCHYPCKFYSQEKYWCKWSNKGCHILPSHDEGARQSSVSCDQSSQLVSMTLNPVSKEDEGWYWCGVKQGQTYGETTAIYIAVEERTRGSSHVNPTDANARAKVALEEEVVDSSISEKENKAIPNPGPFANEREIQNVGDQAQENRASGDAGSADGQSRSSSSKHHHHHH
The experiment is described as follows: SPR, VHH captured by anti-Fc, ECD analyte. Put shortly:
(§1)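 Anti-human Fc surface captured VHH at 0.5 ug/ml (~200-300 RU); running buffer HBSP with 100 ug/ml BSA, 30 μL/min. Single-cycle kinetics with ECD injected low to high from 30 nM in 3-fold dilutions, dissociation 30 min. Double-referenced data globally fit to 1:1 Langmuir model for kon, koff, KD.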
For orientation: Surface plasmon resonance follows binding to a sensor surface in real time, without labels.

Experiment [3] concerns the target T3, cynomolgus monkey pIgR extracellular domain (cynomolgus monkey, UniProt A0A2K5WMU9 19-638).
T3 construct: extracellular domain
The experiment is described as follows: SPR, VHH captured by anti-Fc, ECD analyte. The procedure, abridged: as §1

Experiment [4] concerns the target T4, rat pIgR extracellular domain (rat, UniProt P15083 19-643).
T4 construct: extracellular domain
T4 sequence (looked up): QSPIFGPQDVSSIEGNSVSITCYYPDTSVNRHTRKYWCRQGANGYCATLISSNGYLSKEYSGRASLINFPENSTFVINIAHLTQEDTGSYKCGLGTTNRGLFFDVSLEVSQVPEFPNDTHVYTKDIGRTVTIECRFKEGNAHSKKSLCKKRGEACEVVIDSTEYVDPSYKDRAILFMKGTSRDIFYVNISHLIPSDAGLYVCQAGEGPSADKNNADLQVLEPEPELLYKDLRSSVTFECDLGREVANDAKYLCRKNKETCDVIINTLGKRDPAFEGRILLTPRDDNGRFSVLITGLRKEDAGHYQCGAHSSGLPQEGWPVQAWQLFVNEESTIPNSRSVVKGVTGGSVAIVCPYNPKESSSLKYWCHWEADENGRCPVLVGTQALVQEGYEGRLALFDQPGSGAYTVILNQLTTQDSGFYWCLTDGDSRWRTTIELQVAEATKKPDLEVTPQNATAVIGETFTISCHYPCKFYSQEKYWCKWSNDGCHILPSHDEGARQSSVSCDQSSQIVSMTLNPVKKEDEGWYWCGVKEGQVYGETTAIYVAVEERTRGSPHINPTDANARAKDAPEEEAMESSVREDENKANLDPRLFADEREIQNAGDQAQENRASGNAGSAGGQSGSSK
The experiment can be described thus: SPR, VHH captured by anti-Fc, ECD analyte. The procedure, abridged:
as §1

The target of experiment [5] is T1, human pIgR extracellular domain (ECD). The experiment can be described thus: SPR, VHH captured by anti-Fc, ECD analyte. The procedure, abridged: as §1

T1 sequence (P01833 other isoform, or with tags, fused parts or gaps): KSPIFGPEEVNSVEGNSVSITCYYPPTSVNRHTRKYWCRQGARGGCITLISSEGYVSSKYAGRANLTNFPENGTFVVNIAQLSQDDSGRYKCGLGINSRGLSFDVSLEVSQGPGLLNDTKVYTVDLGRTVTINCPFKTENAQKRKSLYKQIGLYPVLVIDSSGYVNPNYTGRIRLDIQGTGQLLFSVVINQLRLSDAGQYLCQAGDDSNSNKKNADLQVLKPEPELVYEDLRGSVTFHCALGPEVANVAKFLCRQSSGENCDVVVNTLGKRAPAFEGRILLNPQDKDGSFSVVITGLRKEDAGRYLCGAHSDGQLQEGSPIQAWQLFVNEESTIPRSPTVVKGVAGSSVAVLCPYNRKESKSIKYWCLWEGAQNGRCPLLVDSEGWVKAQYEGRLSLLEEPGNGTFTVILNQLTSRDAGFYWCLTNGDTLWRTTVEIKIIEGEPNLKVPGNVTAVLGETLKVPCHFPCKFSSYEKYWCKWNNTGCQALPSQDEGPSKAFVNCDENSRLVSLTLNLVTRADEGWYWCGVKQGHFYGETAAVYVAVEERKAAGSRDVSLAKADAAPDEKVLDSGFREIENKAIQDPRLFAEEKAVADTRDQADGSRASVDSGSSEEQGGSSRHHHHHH
T3 sequence (A0A2K5WMU9 entry or part of it): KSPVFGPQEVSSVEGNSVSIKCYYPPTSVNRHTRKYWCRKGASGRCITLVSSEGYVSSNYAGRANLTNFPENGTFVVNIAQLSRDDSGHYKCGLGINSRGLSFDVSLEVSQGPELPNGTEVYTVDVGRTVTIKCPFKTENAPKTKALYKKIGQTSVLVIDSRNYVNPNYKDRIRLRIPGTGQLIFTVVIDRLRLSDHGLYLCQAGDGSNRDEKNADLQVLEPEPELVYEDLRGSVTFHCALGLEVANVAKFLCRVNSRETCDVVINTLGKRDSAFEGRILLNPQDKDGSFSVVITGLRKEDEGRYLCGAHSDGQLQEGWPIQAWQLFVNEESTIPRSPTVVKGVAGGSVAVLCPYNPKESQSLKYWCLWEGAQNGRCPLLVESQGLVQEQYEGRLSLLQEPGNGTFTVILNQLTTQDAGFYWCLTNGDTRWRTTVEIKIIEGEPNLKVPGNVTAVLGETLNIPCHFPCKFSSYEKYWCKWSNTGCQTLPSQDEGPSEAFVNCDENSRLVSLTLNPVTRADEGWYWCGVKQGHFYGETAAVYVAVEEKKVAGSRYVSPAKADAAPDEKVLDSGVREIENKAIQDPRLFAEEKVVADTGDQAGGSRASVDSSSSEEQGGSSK

B1: 01A04R3LS VHH Mono-Fc (Fc fusion)
chain: QVQLVESGGGSVQPGGSLRLSCAASGIDVSISTIMWYRQPPGRQRELVADVIPSGRSTTYTESVKGRFTVTRDNAKNTVYLQMSGLKPEDTAVYYCNAFVRRENYWGQGTQVTVSSSPAPELLGGPSVFLFPPKPKDTLMISRTPEVTCVVVDVSHEDPEVKFNWYVDGVEVHNAKTKPREEQYNSTYRVVSVLTVLHQDWLNGKEYKCKVSNKALPAPIEKTISKAKGQPREPQVYTKPPSREEMTKNQVSLSCLVKGFYPSDIAVEWESNGQPENNYKTTVPVLDSDGSFRLASYLTVDKSRWQQGNVFSCSVMHEALHNHYTQKSLSLSPGK
For orientation: Kd means the equilibrium constant for the complex coming apart. For the molecule B1, the binding result in experiment [1] is on record as “no binding (tested: 30 nM)”. Moreover, in experiment [2], binding was put at a Kd of 3.29 nM.

B2: 01G05R2LS VHH Mono-Fc (Fc fusion)
chain: QVQLVESGGGLVQAGDSLALSCAGSGDTFSNYAMGWFRQAPGKEREFVADISWYSANIGYADSVKGRFTISRDNAKNMVTLRMNSLKPEDTAVYYCAADRNHWPVKGDYWGQGTQVTVSSSPAPELLGGPSVFLFPPKPKDTLMISRTPEVTCVVVDVSHEDPEVKFNWYVDGVEVHNAKTKPREEQYNSTYRVVSVLTVLHQDWLNGKEYKCKVSNKALPAPIEKTISKAKGQPREPQVYTKPPSREEMTKNQVSLSCLVKGFYPSDIAVEWESNGQPENNYKTTVPVLDSDGSFRLASYLTVDKSRWQQGNVFSCSVMHEALHNHYTQKSLSLSPGK
Take B2: in experiment [1], the binding result is listed as “no binding (tested: 30 nM)”. Moreover, the Kd in experiment [2] amounted to 19.8 nM.

B3: 01C01R2L VHH Mono-Fc (Fc fusion)
chain: QVQLVESGGGLVQAGGSLRLSCAASGRTLRSYIVGWFRQAPGKEREFVAAVTWSDGRRVTADPVKGRFTISRDNAKNTVYLQMDSLKPEDAAVYYCAVSRGGAYEYSRAYEYWGQGTLVTVSSSPAPELLGGPSVFLFPPKPKDTLMISRTPEVTCVVVDVSHEDPEVKFNWYVDGVEVHNAKTKPREEQYNSTYRVVSVLTVLHQDWLNGKEYKCKVSNKALPAPIEKTISKAKGQPREPQVYTKPPSREEMTKNQVSLSCLVKGFYPSDIAVEWESNGQPENNYKTTVPVLDSDGSFRLASYLTVDKSRWQQGNVFSCSVMHEALHNHYTQKSLSLSPGK
As to B3, the binding result in experiment [1] is recorded as “no binding (tested: 30 nM)”. The molecule further registered a Kd in experiment [2] of 6.55 nM.

B4: 01C03R2L VHH Mono-Fc (Fc fusion)
chain: EVQLVESGGGLVQAGGSLRLSCAASGRTLRSYIVGWFRQAPGKEREFVAAVTWSDGRRVTADPVKGRFTISRDNAKNTVYLQMDSLKPEDAAVYYCAVSHGGAYVESRAYEYWGQGTQVTVSSSPAPELLGGPSVFLFPPKPKDTLMISRTPEVTCVVVDVSHEDPEVKFNWYVDGVEVHNAKTKPREEQYNSTYRVVSVLTVLHQDWLNGKEYKCKVSNKALPAPIEKTISKAKGQPREPQVYTKPPSREEMTKNQVSLSCLVKGFYPSDIAVEWESNGQPENNYKTTVPVLDSDGSFRLASYLTVDKSRWQQGNVFSCSVMHEALHNHYTQKSLSLSPGK
Consider B4, for which the binding result in experiment [1] is recorded as “no binding (tested: 30 nM)”. In addition, the equilibrium dissociation constant (Kd) in experiment [2] was 3.67 nM.

B5: 01E05R2 VHH Mono-Fc (Fc fusion)
chain: QVQLVESGGGLVQAGGSLRLSCAASGRAFSSGRMGWFRQAPGKEREFVAAISWSGHTTYKYYADSVKGRFTISRENAKNTVSLQMNSLKPEDTAVYYCAARQSLVAGGDPRGQSEYDYWGQGTLVTVSSSPAPELLGGPSVFLFPPKPKDTLMISRTPEVTCVVVDVSHEDPEVKFNWYVDGVEVHNAKTKPREEQYNSTYRVVSVLTVLHQDWLNGKEYKCKVSNKALPAPIEKTISKAKGQPREPQVYTKPPSREEMTKNQVSLSCLVKGFYPSDIAVEWESNGQPENNYKTTVPVLDSDGSFRLASYLTVDKSRWQQGNVFSCSVMHEALHNHYTQKSLSLSPGK
Consider B5, for which the Kd came out at 36.2 nM in experiment [3], 16.1 nM in experiment [4], 34.2 nM in experiment [5] and 17.3 nM in experiment [2].
